We go through three compounds from US11041003B2, “Crystal structure of Staphylococcus aureus clumping factor A in complex with fibrinogen derived peptide and uses thereof” (THE TEXAS A&M UNIVERSITY SYSTEM, priority 2008, dated 2021).

For one assay, the target named is T1, GST-Fg γ^1-17 (Homo sapiens, UniProt P02679).
T1 construct: made in house; host or cells: Escherichia coli
Put plainly: ELISA-type binding of ClfA proteins to immobilized GST-Fg γ^1-17. As to conditions: GST Fg γ^1-17 coated in microtiter wells; read-out: apparent Kd for GST-Fg γ^1-17.

In another assay the target is αIIbβ3 (Homo sapiens, UniProt P05106+P08514). In words: Integrin (αIIbβ3) inhibition assay: inhibition of full length Fg binding to αIIbβ3. As to conditions: 10 nM full length Fg, inhibitory ELISA type assay. Here is the method:
For αIIbβ3 inhibition assay. αIIbβ3Immulon 4HBX Microtiter 96-well plates (Thermo) were coated with αIIbβ3 ([…]) in TBS (25 mM Tris, 3 mM KCl, 140 mM NaCl, pH 7.4) over night at 4° C. The wells were washed with TBS containing 0.05% (w/v) Tween-20 (TBST). After blocking with 3% (w/v) BSA dissolved in TBS for 1 h at RT, 10 nM of full length Fg was applied in the presence of either WT γ^1-17, γ^1-17D16A or γ^1-17K12A peptides and plates were incubated at RT for another hour. The bound full length Fg was then detected by goat anti human Fg (1:1000 dilution, Sigma) antibody followed by horseradish peroxidase-conjugated rabbit anti-goat IgG antibody (1:1000 dilution, Cappel). After incubation with 0.4 mg/ml of substrate, o-phenylenediamine dihydrochloride (OPD, Sigma) dissolved in phosphate-citrate buffer, pH 5.0, bound antibodies were determined in an ELISA reader at 450 nm. The proteins, antibodies and peptides were diluted in TBST containing 1% (w/v) BSA, 2 mM MgCl2, 1 mM of CaCl2 and MnCl2.
To examine this possibility, the ability of the synthesized Fg WT g^1-17 and mutated peptides (g^1-17D16A and g^1-17K12A) to inhibit full length Fg binding to αIIbβ3 was analyzed by inhibitory ELISA type assay (FIG. 6).
(ELISA stands for enzyme-linked immunosorbent assay.)

Where a SMILES comes first, the peptide text is derived from it.

With “ClfA229-545: recombinant His-tag ClfA construct, residues 229-545 of SEQ ID NO:35, composed only of the N2 N3 domains”, the Kd with GST-Fg γ^1-17 stood at 222 nM.
As for `CC(C)C[C@H](NC(=O)[C@H](Cc1c[nH]cn1)NC(=O)[C@H](Cc1c[nH]cn1)NC(=O)[C@H](CCC(N)=O)NC(=O)[C@H](CCC(N)=O)NC(=O)CNC(=O)[C@H](CCC(=O)O)NC(=O)CN)C(=O)NCC(=O)NCC(=O)N[C@@H](C)C(=O)N[C@@H](CCCCN)C(=O)N[C@@H](CCC(N)=O)C(=O)N[C@@H](C)C(=O)NCC(=O)N[C@@H](CC(=O)O)C(=O)N[C@H](C(=O)O)C(C)C` [g^1-17] (H-GEGQQHHLGGAKQAGDV-OH; N-terminus and C-terminus assumed), the “inhibition of full length Fg binding to αIIbβ3” value on αIIbβ3 was “completely inhibited”; at αIIbβ3 (listed as Fg-γ^1-17) it was “inhibits”.
“g^1-17K12A: Fg γ 395-411 peptide with Lys12→Ala (GEGQQHHLGGAAQAGDV)”: the “inhibition of full length Fg binding to αIIbβ3” value in the assay with αIIbβ3 is reported as “weakly inhibited”; with αIIbβ3 (listed as γ^1-17K12A) it was “very little inhibitory effect”.
